Measurements reported in PMC13354580 (Nature Communications, 2026).

Molecular target: fluorescent Aβ (1–42) (fluorophore label; fluorophore and position not stated)
Assay: fluorescence polarisation

B1: ABAD Y168G mutant, purified protein (enzyme, human)
chain: MAAACRSVKGLVAVITGGASGLGLATAERLVGQGASAVLLDLPNSGGEAQAKKLGNNCVFAPADVTSEKDVQTALALAKGKFGRVDVAVNCAGIAVASKTYNLKKGQTHTLEDFQRVLDVNLMGTFNVIRLVAGEMGQNEPDQGGQRGVIINTASVAAFEGQVGQAAGSASKGGIVGMTLPIARDLAPIGIRVMTIAPGLFGTPLLTSLPEKVCNFLASQVPFPSRLGDPAEYAHLVQAIIENPFLNGEVIRLDGAIRMQP
- fold reduction in the calculated Kd against WT: ~11 fold
